The results in this text go back to patent US20250179139A1 (CENTRO DE INMUNOLOG A MOLECULAR, published 2025).

B1: IL-2 variant 1A displayed on phage (S2 library) (other, not shown: large carriers; small tags and cut ends)
chain: TSSSTKKTQLQLEHLLLDLQMILNGINNYKNPKLTRMLTFKFYMPKKATELKHLQCLEEELKPLEEVLNLAQSKNFHFDPHDVVENINVLLLELKGSETTFMCEYADETATIVEFLNRWITFSQSIISTLT
notes: Substitutions are derived from the segment name printed for the fusion protein built from this clone
B2: recombinant extracellular domain of the human IL-2 receptor beta subunit (receptor, UniProt P14784 27-240, looked up)
chain: AVNGTSQFTCFYNSRANISCVWSQDGALQDTSCQVHAWPDRRRWNQTCELLPVSQASWACNLILGAPDSQKLTTVDIVTLRVLCREGVRWRVMAIQDFKPFENLRLMAPISLQVVHVETHRCNISWEISQASHYFERHLEFEARTLSPGHTWEEAPLLTLKQKQEWICLETLTPDTQYEFQVRVKPLQGEFTTWSPWSQPLAFRTKPAALGKDT
notes: extracellular domain; also called beta chain of the IL-2 receptor; beta subunit of the receptor

The target in test [1] is B2. Description: phage ELISA; ratio of the signal on the beta subunit extracellular domain to the signal on anti-c-myc antibody 9E10 (display level); anti-M13 antibody-HRP. (In general: An ELISA detects its analyte on a solid surface through an enzyme-linked reagent.)
Description: The binding capacity of the new variants to the extracellular domain of the IL-2 receptor beta subunit was assessed by ELISA. For this purpose, plates were coated with the recombinant extracellular domain of the IL-2 receptor beta subunit. The bound phages were detected with an anti-M13 antibody conjugated to horseradish peroxidase. Simultaneously, their binding to a plate coated with the monoclonal antibody 9E10 directed against the c-myc peptide that is fused to the proteins presented on the phages was determined to establish the display levels of each. The ratio between the signals obtained with both coating molecules (relative reactivity) is plotted as a measure of the intrinsic binding capacity of each variant to the beta-subunit.
In test [2] the target is T1, H9/Fc (K35E) fusion protein (human, UniProt P60568 21-153).
T1 construct: mature; Same format as the other Fc fusions; also called fusion protein based on the H9 superkine
T1 sequence (P60568 other isoform, or with tags, fused parts or gaps K35E K35E limits assumed): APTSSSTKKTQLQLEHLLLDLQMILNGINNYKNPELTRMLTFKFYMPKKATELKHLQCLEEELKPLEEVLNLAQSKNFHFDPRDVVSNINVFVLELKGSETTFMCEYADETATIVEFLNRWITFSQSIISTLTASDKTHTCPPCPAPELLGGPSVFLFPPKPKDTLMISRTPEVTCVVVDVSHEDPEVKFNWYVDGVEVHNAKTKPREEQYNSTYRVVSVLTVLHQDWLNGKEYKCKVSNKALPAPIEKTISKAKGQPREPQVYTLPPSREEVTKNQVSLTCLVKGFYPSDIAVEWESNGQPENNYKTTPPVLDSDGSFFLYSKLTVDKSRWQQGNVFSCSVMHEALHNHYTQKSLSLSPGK
Description: BIAcore (SPR); format not stated. A general note: In SPR one partner is held on a chip, and binding of the other changes the refractive index at the surface.

The target of test [3] is T2, IL-2/Fc (K35E) fusion protein (human, UniProt P60568 21-153).
T2 construct: mature; IL-2 fused to the N-terminal end of human IgG1 Fc; also called fusion protein derived from the original IL-2; human IL-2/Fc fusion protein
T2 sequence (P60568 other isoform, or with tags, fused parts or gaps K35E K35E limits assumed): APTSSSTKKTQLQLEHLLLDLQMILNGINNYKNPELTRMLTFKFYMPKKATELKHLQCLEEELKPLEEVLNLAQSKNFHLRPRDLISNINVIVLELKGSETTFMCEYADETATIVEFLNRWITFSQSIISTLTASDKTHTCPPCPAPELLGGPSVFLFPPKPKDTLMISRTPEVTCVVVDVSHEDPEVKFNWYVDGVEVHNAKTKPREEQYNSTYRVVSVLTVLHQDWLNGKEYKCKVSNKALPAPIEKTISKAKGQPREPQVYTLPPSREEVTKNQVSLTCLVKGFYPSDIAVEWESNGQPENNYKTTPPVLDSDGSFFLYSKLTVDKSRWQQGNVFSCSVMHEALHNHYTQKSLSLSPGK
Description: BIAcore (SPR); format not stated.

For B1, the binding result in test [1] is on record as “binds”.

As a reminder, the Kd is the concentration at which binding is half-saturated. The term koff denotes the rate constant with which the complex falls apart. The low end stands for slow dissociation, the high end for fast dissociation. As usually defined, the kon is the rate constant with which the complex forms. Low readings indicate slow association, high ones fast association. Regarding B2, in test [2], binding was put at a Kd of 4.09 nM, the koff was found to be 0.000395 s⁻¹ and the kon amounted to 97200 M⁻¹ s⁻¹. In addition, in test [3], the affinity, expressed as Kd, was 106 nM; the koff is 0.00326 s⁻¹; the on-rate (kon) came to 30800 M⁻¹ s⁻¹.
